Biological target: ectodomain of APP^695 (amyloid precursor protein)
Assay: SPR; ectodomain of APP^695 coupled to the sensor chip surface; purified SORLA ectodomains as analyte; neutral pH; data also analysed with EVILFIT

Row | Substance | SPR sensorgram peak (response units) [RU]
1 | soluble wildtype SORLA ectodomain (Sortilin-related receptor with A-type repeats), hexa-His-tagged (from UniProt Q92673 82-2137) (domain or fragment) | 1750
2 | soluble mutant SORLA^N1358S ectodomain, hexa-His-tagged (from UniProt Q92673 82-2137) (domain or fragment) | 1650

From article PMC12421412
